The DeepSol protein solubility set

Test: soluble on expression in E. coli; label from the status in PepcDB or PDB records

| Sequence | soluble on expression in E. coli |
| --- | --- |
| MGSDKIHHHHHHMKRACVIGAGFGGLALAIRLQSGGVQTTLIEARDKPGGRAYFWEKDGFTFDGGPTVITDPACLEELWALKGHRMADDVELMPVMPFYRLNWADGTNFDYSNDDASLRAEIAKLEPADVAGYDDFLRYSAGVFEEGYVKLGAVPFLDFASMIKAAPALARYQAWRSVYSMVSSFVRNEKLREAFSFHTLLVGGNPMTTSAIYALIHKLEKDGGVWWAKGGTNRLIEGMVTHFRRIGGEVRIGDPVTRVETLGTRVTGVETRSGWSGKFDAVASNADVMHSYRDLLSDNSHAKRRAKSLGKKRFSPSLFVVHFGIEGTWPGIPHHMILFGPRYKGLLDDIYTHGVLPQDFSIYLHHPTVTDPSVAPEGMSTFYALVPVANMGKLPVNWDEVGPILEKRILDEVGRRLIPDIHTRIVTKFHYAPSDFSTDLSAHLGSAFSLEPLLTQSAWFRAHNRDDAISNFYLVGAGTHPGAGIPGVVGSAKATARLMLEDLS | not soluble |
| MANVESLYKELTAEWSKRPPNTVKCGQLLDQLKVALVKMAFLPTDGNDAQSSKKQLILARSVLEVAVEHSVLSKDLLAFERYMAQLKCYYYDYAKIIGESESKYKLLGLNLLYLLSGNRVSDFHTELELLSVDVIQHNQFIRPILALEQYIMEGRYNKIFQAKSTVPVEVYSYFMDLLLETVRDEIGACIEKSYDKISAKDAAKRLNLRVPDEIKAFGAKRQWKLEASGDYSFTDRSVKPKELLPSEELAEQVLSYARDLEMIV | not soluble |
| AVINHDAVPVWPQPEPADATQALAVRFKPQLDVVNGCQPYPAVDPQGNTSGGLKPSGSQAAACRDMSKAQVYSRSGTYNGYYAIMYSWYMPKDSPSTGIGHRHDWENVVVWLDNAASANIVALSASAHSGYKKSFPADKSYLDGITAKISYKSTWPLDHELGFTTSAGKQQPLIQWEQMTQAARDALESTDFGNANVPFKSNFQDKLVKAFFQ | soluble |
| MGSDKIHHHHHHMDKILNLDSVDLYNKLYGLETLNPLVSVIDLNKATSSVDLIRFNYGIYALYLKLEKACDIKYGRQTYDYQEGTIVCFAPGQTAETNPTTDKVQVNAHGILFHPDLLRGTSLGKNIKKYTFFSYEVNEALHLSEEERSIVMDCLKIIRMELEHGVDKHSKTLLVNHIELLLNYCMRFYERQFITRGKTNRDVLTRFENLLDEYFESTLAEQDGLPTVKYFADKLCLSSNYFGDMFKKETGKSPQEYIQEKVIELAKERISGTADTVSQIAYSLGFQYPQHSCRLFKKRVGYTPSEYRAQIGLSTNL | not soluble |
| MGSDKIHHHHHHMINEQRLLNTFLELVQIDSETGNESTIQPILKEKFIALGLDVKEDEAAKHPKLGANNLVCTMNSTIEEGEVPKLYLTSHMDTVVPAINVKPIVKDDGYIYSDGTTILGADDKAGLAAMLEVLQVIKEQQIPHGQIQFVITVGEESGLIGAKELNSELLDADFGYAIDASADVGTTVVGAPTQMLISAKIIGKTAHASTPKEGVSAINIAAKAISRMKLGQVDEITTANIGKFHGGSATNIVADEVILEAEARSHDPERIKTQVKHMTDVFETTASELGGKAEVTVEQSYPGFKINDNEAVVKIAQESARNLGLSANTIISGGGSDGSIINTFGIPSVILGVGYEKIHTTNERMPIKSLNLLASQVLEIIKIVARQSK | not soluble |
| IKATYETFSSPNGHGEGRGYLVMPQKKTIKSPTVLVIHENRGLNPYIKDVARRLAKDGFIAFAPDALYPLGGYPGNDDEGRAMQKEMDRAKIEQDFIAAAKFIKQHEHGNGK | not soluble |
| MGSQFLLSVREFMQTRYYAKKTIEAYLHWITRYIHFHNKKHPSLMGDKEVEEFLTYLAVQGKVATKTQSLALNSLSFLYKEILKTPLSLEIRFQRSQLERKLPVVLTRDEIRRLLEIVDPKHQLPIKLLYGSGLRLMECMRLRVQDIDFDYGAIRIWQGKGGKNRTVTLAKELYPHLKEQIALAKRYYDRDLHQKNYGGVWLPTALKEKYPNAPYEFRWHYLFPSFQLSLDPESDVMRRHHMNETVLQKAVRRSAQEAGIEKTVTCHTLRHSFATHLLEVGADIRTVQEQLGHTDVKTTQIYTHVLDRGASGVLSPLSRL | soluble |
| MGSDKIHHHHHHMKILITGATGFVGRNLVPYLFSHGFVELAIAVRDPQKAISMFESIPLTYISCERTFRQQIIDFAPEVVIHLATNFNFHSDEKSVRDIVDANILFGSLLLEAVSYTPCKFFINLGTFAEYYYNDGNFLPNTFYAATKTAFRSIIQYYQLKGDFKWINLIGYTIYGKKNDSKKIIDYLIDALNSPIPLNFTKGEQINDFIHINDVSDFFYVLLSNLNLLEDTMYTQLYLGTGKGTSIRELSYIIETVYKQKVNANWGGLSYRPYDIMYAVAPISRNLDLLKWKTKISLEEGIKMLRYE | not soluble |
| MSRSRKPDWLKMRPPSGERFTDIKQTLRDRNLNTVCEEANCPNLGECWSGRDGPGTATFMLMGDRCSRGCNFCDVETGGMDPLDPDEPQQVADAVAEIGLDYVVLTSVDRDDLPDQGASHFAETIRAIKERDPSILVECLIPDFQGEPDLVRKIIDADPDVIAHNIETVDRLQWPVRDRRAGYEQSLSVLRQVNRESDCYSKTSLMLGVGEYAHEVYQTLSDLRQAGVDVVTFGQYLQPSRSHLEVSEYVHPDAFDTWQQVAEAEFDFLYCASGPMVRSSYRAGELFVESVLREGRSADEARAEVRAND | not soluble |
| MSLMTSKTSLALLCDFYEFTMSQGYFKNNKKDQICYFDIFFRKIPDSGSFAIFAGLEDILDFVENLSFDAEDIEFLRKQGIFDTEFLDFLANFKFKGEIYAMREGEVIFPNEPLLCIKATTIEAQLLETFLLLSLNHQSLIATKTNRIVRAAKDSKILEFGSRRAQGSEAALKGARAAFIGGCIGSACTLAGKIYNIPINGTMAHSWVQMFENELEAFKAYVKIYPKNPVFLIDTYDCLNSGLKNAIKVFKEFGIQEGGVRIDSGNLLELSLKIRQELDQAGLQKCKIIVSNALDEWSIKKLKEQNAPIDIFGVGERLITASSDPIFSCVYKLAALEDQGIKPKIKISENNEKSTLPHFKKLFRVYDKNTQKILFDELYVFDENPNQDENLERKELLELVYKEKRLLKKSSLNTIQDYTKEQISKLDESFLDLDRFVKFEVKLSPKLQNITEDLLKTRFEGHHHHHH | soluble |
| GSEVYKKAPPYPEQVVSASGKVLMTKDDILAGQSAWQTTGGMEVGSILGHGAYQAPDWTADWLHRELVAWLDLTAQQTYGKKFDEVSPEEQAVLKTRLADEYRNQSRVKEDGSVVISDTRVKAIESILPYYHGVYSDDPKFQTTREHFAMKNNTLPSQEAREKLFNFFFWTSWSASTNRPDENFTYTNNWPHEPLINNVPTTEN | not soluble |
| VTPQYQATSTIYVLGNSVSMSGVDLTLSKQLTADFSVLAKSRPVMNKIEEKLKADYKYKDLNYSVEQLQGMITIENPSGTSLMRMTATNSDAQLAADIANAAADAVAERISEVMVIDKPSSVEEAEKPNYPVSPNVKKNM | not soluble |
| MPSPARRSRRRRSSLLNFSFSEVDLEQQRRALEMFEQQMNDQAFAQLIHDHDVQHINNDANQVPAAPNTPPVPVPPPVQQPQASPNASPVSVLRRRRYANPEQERFGDISRRIHNPANQIPAAPNTQPEVPPTVQQPESSSQERASPTSPEITIFSTGLLGLRRRSSARISIRMSATAQTNLPITPIRRRRGRAVSPILEIEFENLSSSSSGTSGDSGNHSSPTNTNDQSFIGDDARTYDQEHVPIDFEGPSTSTGITDRHPRRRNQDGSHGECTMCFEVPVSPLGCNNCLQIIGCEECVDIWYRSSSKPSCPLCRRKWARKPDVSKMSVISVRKQSSLRRSKRRITSK | not soluble |
| MGQGANILGFGGDRSFNLAGNRAGFALGSNNGALVGGQRVGVDGGIGGGREGVEMGSQVQFGNEPNPGHPAGQFGSFMDNVKNFFSFLGRGMPMPPQQPPPSPPFSLGVTRPPTLIGTERSESENGGRHRPRPWFPEGEQIPEVTGEMRPKEGEAGISSSSSSSSETEFIGPNNGEIPRKSVEFSIDKEPREEFTEDLFTAQTSRPRELPGLIEFA | not soluble |
| MGSDKIHHHHHHMVRGRKIMSLVTDLPAIFDQFSEARQTGFLTVMDLKERGIPLVGTYCTFMPQEIPMAAGAVVVSLCSTSDETIEEAEKDLPRNLCPLIKSSYGFGKTDKCPYFYFSDLVVGETTCDGKKKMYEYMAEFKPVHVMQLPNSVKDDASRALWKAEMLRLQKTVEERFGHEISEDALRDAIALKNRERRALANFYHLGQLNPPALSGSDILKVVYGATFRFDKEALINELDAMTARVRQQWEEGQRLDPRPRILITGCPIGGAAEKVVRAIEENGGWVVGYENCTGAKATEQCVAETGDVYDALADKYLAIGCSCVSPNDQRLKMLSQMVEEYQVDGVVDVILQACHTYAVESLAIKRHVRQQHNIPYIAIETDYSTSDVGQLSTRVAAFIEML | not soluble |
| MDDREGSFVAVRRISQGLERGSVYNSSSAEAVPGSAAWLGRGLSCVCAQRRDSDANSTFDLTPAQEECLQSLQNRIDVAYDSTIPLHQEALRELWKLSFPEEELHGLISEQWKEMGWQGKDPSTDFRGGGFISLENLLYFARNFQKSFQDLLRKQVGDRSVWEYPFAVAGINLTFMLIQMLDLEAVKPRTIVGATFLKFLSENESAFDLLYCIAFKLMDQQWLSMRASYMEFNTVMKSTRRQLERELMLEDIMHLEDLPSYALLNQ | not soluble |
| MGSDKIHHHHHHMAIITRIEVQKRNNERYNIFIHQNGQDVYAFSVDEQVLIKQGLRKGLDIDAEQMKQILYEDEVQKTFNLALHYLSYRMRSVHEVRTYLKKKDREEPIIEHVLHRLTEQRLLDDHAFAEAFIQTKRATTSKGPLKLKQELAEKGVSEKTIEGALTTFSYEEQVEQVKAWLEKQKGRTFKGSSLAWKQKLSRQLLAKGYTSPVIEEAFADVPIKQEEEEEWEALKAFGEKAMRKYAGKKTGWELQQKVKQALYRKGFSLEMIERYLND | not soluble |
| MGSDKIHHHHHHMFDPTLLHIINAHSRNPHYHKKFPIILFWSQKSGCTSLAKWFFYQIDLLQTALNYSPFIHNYEYDIYKNAPAYSLRLGIALREKQKETFKLVRNPYKRAVSSFVSLIAPPYIENPEWKPIRKFLYQDENSSKGLSFKQFLYYLLINGAQANSINPHFTQQYIADEEKYVTNYIYLENFNQDMKALEKRFELKTAPINEFSTSWHHQTPSMIYKGNFSESDITDPLFPRLPTFESFYDTECIQLVQTIFQNDFNTYKYSKEYPY | not soluble |
| MSCVHYKFSSKLNYDTVTFDGLHISLCDLKKQIMGREKLKAADSDLQITNAQTKEEYTDDNALIPKNSSVIVRRIPIGGVKSTSKTYVISRTEPVMGTTKAVCKNTITLFLHNCFYLYNVSVT | not soluble |
| MGSDKIHHHHHHMPNSYTHYHDENVTDPHLRATGAISVLPLGAHEQHGPHLPFETDTLIAAGIVSRLAAVLPAHLPVSFLPVEPVGYSIEHMDVPGTKTLCYDEAIERWLGIAEAEYEKGVRKFVMLNAHGGNSPLMTIVATEARARFGMLAVATSWTRFGVPADIVKPQDKAVDIHGGDIETSVMLALHPERVVMEKAANFPSRQSDFSQRFSHLRAYGPHAFGWLMSDLNPDGVAGNAAAASAGKGERLISHAVNGLLELLEDVHAFDITLFHNKI | not soluble |
